Substrate in this data set: CC[C@H](C)[C@H](N)C(=O)O
The experiment in a line: HPLC of 4-hydroxyisoleucine after precolumn derivatization; Michaelis-Menten fit. The class given is biochemical, Bacillus thuringiensis. The settings on record: apparent, L-Ile 0.02 to 5 mM, 10 mM alpha-ketoglutarate, 5 mM FeSO4, 10 mM ascorbic acid, 100 mM Tris-HCl pH 7.0, 30 °C. The text has this: HPLC of 4-hydroxyisoleucine after precolumn derivatization; Michaelis-Menten fit on IDO (L-isoleucine dioxygenase)

B1: IDO (L-isoleucine dioxygenase) (Bacillus thuringiensis) (protein)
chain: MKMSGFSIEEKVHEFESKGFLEISNEIFLQEEENHRLLTQAQLDYYNLEDDAYGECRAGSYSRYIKYVDSPDYILDNSNDYFQSKEYNYDDGGKVRQFHSINDSFLYNPLIQNIVRFDTEFAFKTNIIDTSKDLIIGLHQVRYKATKERPSFSSPIWLHKDDEPVVFLHLMNLSNTAIGGDNLIANSPREINQFISLKEPLETLVFGQKVFHAVTPLGTECSTEAFRDILLVTFSYKETK
notes: motif His159-X-Asp161-X50-His212
As usually defined, the Km is the substrate concentration at which the rate is half of its maximum. The Vmax is the top rate of the reaction or transport when substrate is in excess. What is called kcat is the maximal rate divided by the concentration of active sites. As usually defined, the kcat/Km is the turnover number divided by the Michaelis constant. For B1, the Michaelis-Menten constant (Km) amounted to 200 µM, the Vmax amounted to 2.18 µmol/min/mg, the kcat came out at 0.0727 s⁻¹ and the catalytic efficiency (kcat/Km) is 363 M⁻¹ s⁻¹.

Source of the values: publication PMC5972919, “A strategy for L-isoleucine dioxygenase screening and 4-hydroxyisoleucine production by resting cells” (Bioengineered, 2017).
